Measurements: patent US20130040894A1, “INHIBITION OR ACTIVATION OF SERINE/THREONINE ULK3 KINASE ACTIVITY” (TALLINN UNIVERSITY OF TECHNOLOGY, priority 2009, published 2013)

T1: FLAG-tagged GLI2, P10070
T1 chain: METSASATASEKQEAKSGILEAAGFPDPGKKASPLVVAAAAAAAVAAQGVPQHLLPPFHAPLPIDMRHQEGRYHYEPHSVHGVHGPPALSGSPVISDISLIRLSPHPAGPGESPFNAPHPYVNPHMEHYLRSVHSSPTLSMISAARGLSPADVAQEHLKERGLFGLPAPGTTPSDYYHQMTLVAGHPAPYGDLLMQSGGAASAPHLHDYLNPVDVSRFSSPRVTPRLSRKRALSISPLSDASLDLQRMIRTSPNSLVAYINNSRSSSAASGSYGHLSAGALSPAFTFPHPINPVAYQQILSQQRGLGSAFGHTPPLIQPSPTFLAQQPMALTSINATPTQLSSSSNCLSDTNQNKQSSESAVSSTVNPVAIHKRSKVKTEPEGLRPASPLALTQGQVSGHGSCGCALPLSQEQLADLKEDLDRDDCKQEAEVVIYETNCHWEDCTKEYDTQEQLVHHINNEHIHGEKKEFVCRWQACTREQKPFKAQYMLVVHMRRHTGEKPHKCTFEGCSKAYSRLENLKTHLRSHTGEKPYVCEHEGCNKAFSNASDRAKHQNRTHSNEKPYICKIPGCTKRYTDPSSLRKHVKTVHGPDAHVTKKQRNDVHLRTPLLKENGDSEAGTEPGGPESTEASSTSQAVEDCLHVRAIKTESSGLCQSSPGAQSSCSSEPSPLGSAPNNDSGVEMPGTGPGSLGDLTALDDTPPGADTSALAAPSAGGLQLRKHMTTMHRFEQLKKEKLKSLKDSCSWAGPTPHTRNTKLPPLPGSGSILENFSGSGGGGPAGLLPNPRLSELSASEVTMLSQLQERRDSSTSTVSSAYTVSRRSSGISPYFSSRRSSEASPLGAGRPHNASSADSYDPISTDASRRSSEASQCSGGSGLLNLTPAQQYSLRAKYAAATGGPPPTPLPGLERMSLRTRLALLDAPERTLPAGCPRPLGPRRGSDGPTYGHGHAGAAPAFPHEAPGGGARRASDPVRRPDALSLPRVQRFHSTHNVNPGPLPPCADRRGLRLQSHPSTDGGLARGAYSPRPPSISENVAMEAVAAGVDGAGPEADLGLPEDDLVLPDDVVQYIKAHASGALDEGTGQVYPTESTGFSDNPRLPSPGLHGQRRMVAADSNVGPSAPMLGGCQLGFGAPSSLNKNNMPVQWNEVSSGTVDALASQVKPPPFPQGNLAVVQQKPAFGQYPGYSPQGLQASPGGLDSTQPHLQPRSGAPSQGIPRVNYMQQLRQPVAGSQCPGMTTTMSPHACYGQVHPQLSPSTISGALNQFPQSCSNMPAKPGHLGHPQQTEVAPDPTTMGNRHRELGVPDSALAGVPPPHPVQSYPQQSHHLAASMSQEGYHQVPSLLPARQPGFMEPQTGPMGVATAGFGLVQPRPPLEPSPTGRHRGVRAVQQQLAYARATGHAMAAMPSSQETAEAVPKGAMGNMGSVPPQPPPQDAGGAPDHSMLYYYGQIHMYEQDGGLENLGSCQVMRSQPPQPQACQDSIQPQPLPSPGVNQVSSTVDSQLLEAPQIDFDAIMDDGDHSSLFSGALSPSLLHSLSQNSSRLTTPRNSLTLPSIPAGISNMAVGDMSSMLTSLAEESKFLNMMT


How the values were obtained:
[1] = test system: GLI-dependent firefly luciferase activity in Shh-LIGHT2 cells; assay: GLI-dependent luciferase assay in Shh-L2 cells; format: cell-based, mouse; details: for enhancement of transcriptional activity of overexpressed GLI1: cotransfected with GLI1, Shh-L2 cells; for enhancement of transcriptional activity of overexpressed GLI2: cotransfected with GLI2, Shh-L2 cells
Experimental: Cells were transfected by the expression constructs or respective empty vectors using Polyethylenimine transfection agent (PEI) (Inbio) and as described in [28]. We used 0.25 μg of cDNA per 1 cm^2 of plate surface area for transfections. After 3 h of transfection HEK293, NIH3T3 and Cos1 cells were propagated in the normal growth medium for 48 h. Prior the further analysis the cells were washed twice with PBS. Post-transfectional Shh-L2 cells were grown in the normal growth medium for 24 h and for additional 24 h in the Light medium containing 0.25% FBS, washed once with PBS, lysed in Passive Lysis Buffer (Promega, Madison Wis., USA) (70 ul per well of 24-well plate format) and subjected to luciferase assay.
Luciferase assay was performed as previously described. Briefly, firefly luciferase activity of 12 μl of the Shh-L2 cells lysate was measured using Luciferase Assay Kit (Promega) and galactosidase activity was quantified using Galacto-LightPlus kit (Tropix, Bedford Mass., USA) according to the manufacturer's instructions. Chemiluminicence was measured using Ascent FL Fluoroscan (Thermo Electron Corporation, Waltham Mass., USA) according to the manufacturer's instructions.
We cotransfected the constructs together with GLI-expressing plasmids (or respective empty vector) into Shh-L2 cells and assessed their effect on GLI-dependent firefly luciferase activity. The obtained data was normalized with β-galactosidase values. […] It was able to stimulate the luciferase activity 3.8 times and enhanced the transcriptional activity of over expressed GLI1 and GLI2 approximately 2 and 3.2 times, respectively. The potency of STK36 in the assay was much lower.
In order to examine if the kinase activity of ULK3 is required for the luciferase reporter activation we tested the supposed kinase-deficient variants of ULK3, ULK3(K44R) and ULK3(K139R) in the same assay. […] We also tested the effect of ULK3 and the mutants on the luciferase reporter when the SHH pathway was activated by cotransfection with pShhN (plasmid expressing biologically active part of SHH).

FLAG-tagged GLI2, P10070 = molecular target: T1, FLAG-tagged GLI2, P10070
GLI2 = assay: In vitro kinase assay, phosphorylation of GLI2; format: biochemical; details: FLAG-tagged GLI2 immunoprecipitated from HEK293 cells
Experimental: (§1) HEK293 cells were transfected with 13.5 μg of FLAG-tagged constructs expressed GLI1, GLI2, GLI3, ULK3, ULK3(K44R), ULK3(K139R) or FLAG-CMV-4 empty vector on 10 cm plates. The cells were lysed with 0.5 ml of Lysis Buffer (50 mM Tris HCl, pH 7.4, 150 mM NaCl, 1 mM EDTA, 1% Triton X-100) containing protease inhibitor cocktail (PIC) (Roche Applied Science). The lysates were centrifuged for 15 min at 4° C. and 15000 g, and the supernatants were used for immunoprecipitation (IP). IP was performed using anti-FLAG-M2 affinity gel (Sigma-Aldrich) in batch format according to the manufacture's instructions. Immune complexes were washed three times with 500 μl of Kinase Buffer (KB) (50 mM HEPES, pH 7.4, 20 mM MgCl2, 25 μM ATP) and resuspended in 12.5 μl of KB. One fifth of the immuno-complexes was subjected to WB and the rest was used for the kinase assay.
Kinase reactions were carried out in KB in a total volume of 20 μl of in the presence of 1 μCi of [γ-^32P]ATP per reaction. We used 1 μl of the immunoprecipitated ULK3, ULK3(K44R) or ULK3(K139R) mixed with 5 μl of the GLI-M2 immunocomplexes or 5 μl of bacterially expressed and purified His-GLI1 fragments. Kinase reactions were held at 30° C. for 30 min and terminated by adding of 5 μl of 4× Laemmli Sample Buffer. Proteins were resolved by SDS-PAGE. […]

ULK3 = assay: In vitro kinase assay, autophosphorylation; format: biochemical, human; details: FLAG-tagged protein immunopurified from HEK293 cells, γ-P32-ATP
Experimental: as §1
Kinase reactions were carried out in KB in a total volume of 20 μl of in the presence of 1 μCi of [γ-^32P]ATP per reaction. We used 1 μl of the immunoprecipitated ULK3, ULK3(K44R) or ULK3(K139R) mixed with 5 μl of the GLI-M2 immunocomplexes or 5 μl of bacterially expressed and purified His-GLI1 fragments. Kinase reactions were held at 30° C. for 30 min and terminated by adding of 5 μl of 4× Laemmli Sample Buffer. Proteins were resolved by SDS-PAGE. The gel was dried at 80° C. for 2 h, and autoradiography was performed using Bio-Rad Personal Molecular Imager FX.
To test if ULK3 has an autophosphorylation activity, we expressed FLAG-tagged wild-type ULK3 and mutants ULK3(K44R) and ULK3(K139R) in HEK293 cells, immunopurified and subjected to in vitro kinase assay in the presence of γ-P^32-ATP.

phosphorylation of GLI2 (GLI2)	Molecule	enhancement of transcriptional activity of overexpressed GLI1 [1]	enhancement of transcriptional activity of overexpressed GLI2 [1]	stimulation of GLI-dependent luciferase activity ([1]; kinase construct alone, Shh-L2 cells, normalized with β-galactosidase)	induction of luciferase activity with activated SHH pathway ([1]; cotransfection with pShhN, Shh-L2 cells)	in vitro kinase assay, phosphorylation signal (32P autoradiography) (FLAG-tagged GLI2, P10070)	autophosphorylation activity (ULK3)
–	ULK1: unc-51-like kinase 1, homologue of ULK3, overexpressed in Shh-L2 cells (protein, UniProt O75385 1-1050, looked up) Serine/threonine-protein …: MEPGRGGTETVGKFEFSRKDLIGHGAFAVVFKGRHREKHDLEVAVKCINKKNLAKSQTLLGKEIKILKELKHENIVALYDFQEMANSVYLVMEYCNGGDLADYLHAMRTLSEDTIRLFLQQIAGAMRLLHSKGIIHRDLKPQNILLSNPAGRRANPNSIRVKIADFGFARYLQSNMMAATLCGSPMYMAPEVIMSQHYDGKADLWSIGTIVYQCLTGKAPFQASSPQDLRLFYEKNKTLVPTIPRETSAPLRQLLLALLQRNHKDRMDFDEFFHHPFLDASPSVRKSPPVPVPSYPSSGSGSSSSSSSTSHLASPPSLGEMQQLQKTLASPADTAGFLHSSRDSGGSKDSSCDTDDFVMVPAQFPGDLVAEAPSAKPPPDSLMCSGSSLVASAGLESHGRTPSPSPPCSSSPSPSGRAGPFSSSRCGASVPIPVPTQVQNYQRIERNLQSPTQFQTPRSSAIRRSGSTSPLGFARASPSPPAHAEHGGVLARKMSLGGGRPYTPSPQVGTIPERPGWSGTPSPQGAEMRGGRSPRPGSSAPEHSPRTSGLGCRLHSAPNLSDLHVVRPKLPKPPTDPLGAVFSPPQASPPQPSHGLQSCRNLRGSPKLPDFLQRNPLPPILGSPTKAVPSFDFPKTPSSQNLLALLARQGVVMTPPRNRTLPDLSEVGPFHGQPLGPGLRPGEDPKGPFGRSFSTSRLTDLLLKAAFGTQAPDPGSTESLQEKPMEIAPSAGFGGSLHPGARAGGTSSPSPVVFTVGSPPSGSTPPQGPRTRMFSAGPTGSASSSARHLVPGPCSEAPAPELPAPGHGCSFADPITANLEGAVTFEAPDLPEETLMEQEHTEILRGLRFTLLFVQHVLEIAALKGSASEAAGGPEYQLQESVVADQISLLSREWGFAEQLVLYLKVAELLSSGLQSAIDQIRAGKLCLSSTVKQVVRRLNELYKASVVSCQGLSLRLQRFFLDKQRLLDRIHSITAERLIFSHAVQMVQSAALDEMFQHREGCVPRYHKALLLLEGLQHMLSDQADIENVTKCKLCIERRLSALLTGICA	no effect	no effect	3.4 times	–	–	–
slightly phosphorylate	FLAG-tagged ULK3(K44R) (protein) MAGPGWGPPRLDGFILTERLGSGTYATVYKAYAKKDTREVVAIRCVAKKSLNKASVENLLTEIEILKGIRHPHIVQLKDFQWDSDNIYLIMEFCAGGDLSRFIHTRRILPEKVARVFMQQLASALQFLHERNISHLDLKPQNILLSSLEKPHLKLADFGFAQHMSPWDEKHVLRGSPLYMAPEMVCQRQYDARVDLWSMGVILYEALFGQPPFASRSFSELEEKIRSNRVIELPLRPLLSRDCRDLLQRLLERDPSRRISFQDFFAHPWVDLEHMPSGESLGRATALVVQAVKKDQEGDSAAALSLYCKALDFFVPALHYEVDAQRKEAIKAKVGQYVSRAEELKAIVSSSNQALLRQGTSARDLLREMARDKPRLLAALEVASAAMAKEEAAGGEQDALDLYQHSLGELLLLLAAEPPGRRRELLHTEVQNLMARAEYLKEQVKMRESRWEADTLDKEGLSESVRSSCTLQ	neither of the mutants had an effect	some residual activity	–	1.7 times	The mutant ULK3(K44R) could slightly phosphorylate GLI2 (data not shown)	reduced efficiency in autophosphorylation
